# Experiment: soluble on expression in E. coli; label from the status in PepcDB or PDB records
row,Sequence,soluble on expression in E. coli
1,MAHHHHHHMCHLCDVPVITPDKGVIQSGCGLHPKKTLGNGGAGGVHPGKNTTQETGFPTTGGPNNQHIHLRLCDLVLPRVEYNILPQIFRGVNRDLRHSWSILGGQCGTVKVRRVSLQHAVGATRLHVSVQETAPPFPLHGVTPPLHPLCGAHKLDGQFTDTAGQRTTRPLYTSHTRRIPTAFSLFYSPFFCVPSSNRAPSSSALHVPLTRRWQKGRRRLGTSHARTPRPHSPK,not soluble
2,MGSDKIHHHHHHMMATSAVEKIDYWQASILKEMELSRAQFTHFAFEKHVHLDYHIGVVCHGGQRYHHRGSEYRLTPGNISTLNPDESHNGQSIADGGYEALVMSLPTSYVQQVGGALNQGELYFSTPILDDPKLRAYFIRLHRQLTLHQANITPLEAETLLLGFISELFYRHGKLRNLPSCQARLSGAQLDNIKQQFHQGLDQEFELEQLALSVDLSKFQFLRQFKAATGMTPHAYLKRLRLEYAKKALMRGDSAISTAYDLGFFDQSHFNKAFKRAFLITPAHFQKRVTP,not soluble
3,MKDNLKEARRYLNNAKEMLSQKAKKEGKFYQDKKYIRLAGHAAYSGVLIALDNVLGNKDSGRKSVDWYKSELAKLDKKALTAFNGAYETLHLAMSYDGNIVANVSKSGIELADSIITWAETRTAAA,not soluble
4,MGSDKIHHHHHHMEFYDIVIVGGGPAGLAAAASAKKNKIDKILILERDCELGGILNQCIHNGFGLHTFKEELTGPEYAGRFIKEVKELGIEYRLNTMVMDISTGDESENGSNDKIVTAMNRTDGLFHIAAKTVILAMGCRERARGALNIPGYRPAGIFSAGTAQRLVNIEGYMPGRKVVILGSGDIGLIMARRMTLEGAKVQVVAELMPYSGGLKRNIVQCLDDFNIPLKLSHTVVDIKGRERVEGITLAQVDEHNKPIEGTEEFYECDTLLLSCGLIPENEISKTAGVELNPVTSGPVVNESLETNVPGVFACGNVLHVHDLVDYVSEEATAAGRHAAEYVKNGGDKSCDGKEISITATGGVRYTVPSTINTAQMDDTVTVRFRVGAVYKNCYIAVYLDDKQLQHRKRPVMAPGEMEQVVLQKKQLIETDNPCTITIKIEEA,not soluble
5,MAHHHHHHMSTEPTPRVIVFDLDGTLWRPEMYELWGGGAPFMLSKDNSSIAIDKKGTEVRLIGQTRELLQMLSTTEEWRNTHLAISSTCDEPRWAMELLQLFRFRDKRGNDVPMLSLFGDLVEIYKANKKNQHRTILKKVKEHDPTVRGDFSDFIFFDNQQDNIGHVSSIGVTSIYCPNGMVGGVFERGLKEWRDKEKKRAL,soluble
6,MSRAVRPYLVLATQRSGSTLLVESLRATGCAGEPQEFFQYLPSTGMAPQPREWFAGVDDDTILQLLDPLDPGTPDTATPVAWREHVRTSGRTPNGVWGGKLMWNQTALLQQRAAQLPDRSGDGLRAAIRDVIGNEPVFVHVHRPDVVSQAVSFWRAVQTQVWRGHPDPKRDSQAVYHAGAIAHIIRNLRDQENGWRAWFAEEGIDPIDIAYPVLWRNLTAIVASVLDAIGQDPKLAPAPMLERQANQRSDEWVDRYRAEAPRLGLPT,soluble
7,MQYIKIHALDNVAVALADLAEGTEVSVDNQTVTLRQDVARGHKFALTDIAKGANVIKYGLPIGYALADIAAGEHVHAHNTRTNL,soluble
8,MGSDKIHHHHHHMLDPIEFIHNASSISKKSMNRLKLKTNPFSEKPIRGNTKFFVGRTSELSEIADILGAAQYGSVANAAIVGTKGIGKSSILNILYYASKRHNHWVVELEASQITARQFLIQLMYGIIKDNLFSVDGTLSSDYMKHSQKIIEIYKRLSNYSDKTPVHYPREKIERDLKYLLNEVKEENKLCVILIDEADQFAKRSCLGLLQFFHSFLYEDDILTFLAGPPTMVEDLTKISPAIRDRIPKIINMPPLTKEEAYDLIKRRLEDSQITGAKGYQPFSEQSIEKIIEECDGIPRRIIMTCSEAVSLGLKNGVDEIDDEIARNAMKNLGISVGHQILNHLTPAQSKIIKAMAELGGSSTVTELSGILNNSTGTIGTHLSDIYEMGYIYKERDGYNVYYTLSKELKDVLITKEDIS,not soluble
9,MGSDKIHHHHHHMPRHDDPRYFPISPLLIVPQALGSFSVFIRKDERLILYAKAGETFTERHSRRLHENGTSEVYVRVDQRQNFGLYLERHLAHILEDDRLPVEHRASAFHCATTELLRDTFGTRLPAPVDGILFERLQSLVTMSLRFLCEQGTLKALGQLLDCDFSAYSHSVNVYALTVPLLARLGYAQTDLVRTGLGVLLHDIGLARLPRAITRHRHSLTKHEEHIYRTHPTLGVGLVAQVPLSQEALHCIMLHHERLDGSGFPAGVKDENIPTAVRALAIADTYDLLTTAPGEARLTPFMALQLMRSEHHSTLDLYLLREFITMLSDAEMAGVWPDTLR,not soluble
10,MGSDKIHHHHHHMKIDFHTHIYPDHVAVRTIAAVRQRAGIEAHTDGTLKGLKRSMTAAGIDISVVAAVATRPEQVSSIHCWLGGIRQPGIETMATTHPSNPLKSEQIKSLKRRGFKGFKLHPDYQHFFVDDFRMYPFYEAAAAEGMFILFHAGMDRGLPYPVHATPKRLAAVHEAVPRLCMIAAHLGGEEAYEETVAHLLGKDLYLDTSFVLRKMPRLFLERIFREHPPDKLLFASDSPWTDQREELNFLLQLPFLSVQDQEKICFSNAARLLGREA,not soluble
11,MGSDKIHHHHHHMKVTLIGIDLAKNVFQVCGINQAGKSVFNRALKRSQLMAFLFKYPDSIIAMEACSGSNYWGRELLTKGFEVRLIPPQHVKPFVKGNKNDRNDAFAICEAALRPNLTFVQPRTLEQTDMILAHRIRERNVENRTSLINQIRGLLNEYGVVIAQGKERLKLAIPELLENADSGLTEIARQHFQALLEEWKQVDRTIKNLEKNIKSQAKLNHQTNRLMGIKGVAEITATAAVAFAGNGAQYHNGRHFAANLGLVPREYSSGGKQKLGKITKRGNNYLRRLLVQGAWSIIRYVGNSTDRMSVWAKKLIERRGKHKAAVAVANKLARIIWSMLYNQTEYRAN,not soluble
12,MGSDKIHHHHHHMKITWFGHACFALEMEGKTIVTDPFDESVGYPIPNVTADVVTESHQHFDHNAHHLVKGNFRVIDRPGAYTVNGVKIKGVETFHDPSHGRERGKNIVFVFEGEGIKVCHLGDLGHVLTPAQVEEIGEIDVLLVPVGGTYTIGPKEAKEVADLLNAKVIIPMHYKTKYLKFNLLPVDDFLKLFDSYERVGNILELFEKPKERKVVVMEVQ,soluble
13,MSLGDSETIRILVSTDNHVGYNERDPIRGDDSWKSFHEVMCLAKQHDVDMVLLAGDLFHENKPSRKSMYQVMRSIRMNCLGDKPCELQLLSDASENFQGAFNHVNYEDLDINVGIPIFSIHGNHDDPSGEGHLAALDILQVSGLLNYYGRTPESDNIQLKPVLLQKGRTKLALYGMSNVRDERLFRTFRDGKVKFFRPSVQKEDWYNLICVHQNHHAYTETGYLPENFLPEFLDLVIWGHEHECLINPREGHHHHHH,soluble
14,HRTRIEDESIHKLVLDAHRCIHQHLDVLHQQLHQHCEECDLSNIDDAGLEQRLNEWRDEDDSSARMVLQQLHLIYRMLPELHSLASKFAVRVN,not soluble
15,MIRKWDTKDTAPLLALWLDSTIHAHPFISESYWRDSVAVVRDVYLPAASTWVWEQDGELKGFVSVLDSRFVGALFVAPGATRQGIGRALLDEVKQHYAWLSLEVYQKNESAVSFYHAQGFRIEDCAWQDDTQHPTWIMRWPADQMP,not soluble
16,MSLDVAIGEVLAEVAAQEGDRLALVEVVPNGMDSPVGAASTSRRWTYAQLNDDARRCASWLLTQFKTGDHICVWAPNVPEWIVLQYGAALSGLVLVTANPALKASELEFVLQQSQSVALFHLDAFRGVETGAVARSFASAKLRCISFSGWLAEIRRTEIGALPRIDPGQPAQIQYTSGTTGRPKGALLHHRGLITNASYVAARAGLDHSVLLSPMPLFHTAGSIMSVLGCLNSRSTLVLPLLFDPGTVLDAIAHTRADTLFGVPTMLLAVIDAQLQAPRDLSSLRVAASGGAQVPPELHRRIHDALKLPLLTVFGQTELSPIVSQTCIDDPDEQRIHSVGRPLWNVEVRIVDPNGDRVVVIGVEGEIQVRGYQTMLGYFNAPKETSETITADGWLRTGDLGAMDEAGYLRITGRLKDMIIRGGENIYPAEVEACLLRHPAVADISVFGAPDDKWGEVVAAAVRLVPDVPVTATELSAFCKTEIAPHKAPTVWYACTGFPLTASGKIQKFRLRDAAVEGELQRLSEGHHHHHH,soluble

# — the DeepSol protein solubility set
